# Test results reported in IntAct's records for PubMed 20223215.
# Target: lrp8_human LRP8 (UniProt Q14114)
# Sequence of UniProt Q14114 (Q14114 whole entry): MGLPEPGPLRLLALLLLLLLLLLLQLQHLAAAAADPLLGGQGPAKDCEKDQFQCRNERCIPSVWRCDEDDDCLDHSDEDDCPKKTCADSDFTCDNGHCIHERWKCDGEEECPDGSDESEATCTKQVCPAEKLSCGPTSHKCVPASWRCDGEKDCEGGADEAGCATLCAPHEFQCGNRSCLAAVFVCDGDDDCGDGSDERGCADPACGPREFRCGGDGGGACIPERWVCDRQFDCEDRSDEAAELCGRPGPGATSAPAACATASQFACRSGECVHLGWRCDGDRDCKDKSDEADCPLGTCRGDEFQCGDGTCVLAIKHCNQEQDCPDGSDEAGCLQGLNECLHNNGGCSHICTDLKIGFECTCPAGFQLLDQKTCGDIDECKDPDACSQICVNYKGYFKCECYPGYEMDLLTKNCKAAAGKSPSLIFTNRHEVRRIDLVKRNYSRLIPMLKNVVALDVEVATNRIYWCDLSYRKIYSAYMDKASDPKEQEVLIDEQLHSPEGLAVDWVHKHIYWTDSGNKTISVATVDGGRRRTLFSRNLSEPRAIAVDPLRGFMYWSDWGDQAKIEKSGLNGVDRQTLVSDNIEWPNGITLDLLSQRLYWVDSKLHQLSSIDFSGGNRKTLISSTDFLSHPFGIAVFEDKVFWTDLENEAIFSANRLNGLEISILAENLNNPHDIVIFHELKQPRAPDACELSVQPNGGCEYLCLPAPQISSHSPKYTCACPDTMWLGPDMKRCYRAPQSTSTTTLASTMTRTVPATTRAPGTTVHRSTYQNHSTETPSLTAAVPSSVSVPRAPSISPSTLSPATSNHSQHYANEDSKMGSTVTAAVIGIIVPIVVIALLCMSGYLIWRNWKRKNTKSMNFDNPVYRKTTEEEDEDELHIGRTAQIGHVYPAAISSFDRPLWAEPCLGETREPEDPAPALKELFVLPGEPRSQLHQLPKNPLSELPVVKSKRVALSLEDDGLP
row,Substance,effect of a mutation on the interaction
1,"Reelin (Mus musculus), Q60841 K2467A",disrupting interaction strength
2,"Reelin (Mus musculus), Q60841 K2467R",disrupting interaction strength
3,"Reelin (Mus musculus), Q60841 K2360A",disrupting interaction
